Reference: patent publication US20210292390A1, “CHIMERIC ANTIGEN RECEPTORS” (Oxford University Innovation Limited, priority 2016, published 2021)
Positions count from the first letter of the chain named. Numbers in names are those of the source.

T1: GADS (Homo sapiens, UniProt O75791)
T1 construct: endogenous in cells; host or cells: Jurkat cells
T1 sequence (O75791 1-330): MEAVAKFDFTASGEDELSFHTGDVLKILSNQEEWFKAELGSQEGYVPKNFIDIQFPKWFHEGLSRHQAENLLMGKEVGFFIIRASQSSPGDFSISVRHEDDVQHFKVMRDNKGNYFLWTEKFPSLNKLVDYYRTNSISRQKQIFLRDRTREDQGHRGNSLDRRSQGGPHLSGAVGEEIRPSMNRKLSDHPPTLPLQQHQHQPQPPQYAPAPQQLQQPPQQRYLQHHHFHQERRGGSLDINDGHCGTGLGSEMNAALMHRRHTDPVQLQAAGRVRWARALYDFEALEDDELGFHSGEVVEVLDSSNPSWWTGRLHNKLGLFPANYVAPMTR

T2: SLP-76 (Homo sapiens, UniProt Q13094)
T2 construct: endogenous in cells; host or cells: Jurkat cells
T2 sequence (Q13094 1-533): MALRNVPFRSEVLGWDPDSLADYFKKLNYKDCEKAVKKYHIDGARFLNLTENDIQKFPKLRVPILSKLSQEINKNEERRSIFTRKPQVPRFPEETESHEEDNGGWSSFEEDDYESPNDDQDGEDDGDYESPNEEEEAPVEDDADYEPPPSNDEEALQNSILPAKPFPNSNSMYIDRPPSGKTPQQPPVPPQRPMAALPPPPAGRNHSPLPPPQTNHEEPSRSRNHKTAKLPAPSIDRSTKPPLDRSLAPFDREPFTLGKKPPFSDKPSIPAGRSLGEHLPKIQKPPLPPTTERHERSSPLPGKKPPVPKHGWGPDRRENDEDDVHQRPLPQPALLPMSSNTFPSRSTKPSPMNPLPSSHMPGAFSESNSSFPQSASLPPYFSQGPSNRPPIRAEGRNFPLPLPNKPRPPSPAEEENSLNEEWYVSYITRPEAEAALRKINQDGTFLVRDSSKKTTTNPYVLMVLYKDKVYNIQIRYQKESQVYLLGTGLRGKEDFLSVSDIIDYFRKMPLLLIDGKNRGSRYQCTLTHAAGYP

B1: CD6 Y629F: mutant form of CD6 with tyrosine Y629 substituted (protein)
chain: DQLNTSSAESELWEPGERLPVRLTNGSSSCSGTVEVRLEASWEPACGALWDSRAAEAVCRALGCGGAEAASQLAPPTPELPPPPAAGNTSVAANATLAGAPALLCSGAEWRLCEVVEHACRSDGRRARVTCAENRALRLVDGGGACAGRVEMLEHGEWGSVCDDTWDLEDAHVVCRQLGCGWAVQALPGLHFTPGRGPIHRDQVNCSGAEAYLWDCPGLPGQHYCGHKEDAGAVCSEHQSWRLTGGADRCEGQVEVHFRGVWNTVCDSEWYPSEAKVLCQSLGCGTAVERPKGLPHSLSGRMYYSCNGEELTLSNCSWRFNNSNLCSQSLAARVLCSASRSLHNLSTPEVPASVQTVTIESSVTVKIENKESRELMLLIPSIVLGILLLGSLIFIAFILLRIKGKYALPVMVNHQHLPTTIPAGSNSYQPVPITIPKEVFMLPIQVQAPPPEDSDSGSDSDYEHYDFSAQPPVALTTFYNSQRHRVTDEEVQQSRFQMPPLEEGLEELHASHIPTANPGHCITDPPSLGPQYHPRSNSESSTSSGEDYCNSPKSKLPPWNPQVFSSERSSFLEQPPNLELAGTQPAFSAGPPADDSSSTSSGEWFQNFQPPPQPPSEEQFGCPGSPSPQPDSTDNDDYDDISAA
modifications: left off: large carriers; small tags and cut ends
notes: mutant form of CD6 with tyrosine Y629 substituted
B2: CD6 Y662F: mutant form of CD6 with tyrosine Y662 substituted (protein)
chain: B1 chain with F605Y, Y638F
modifications: left off: large carriers; small tags and cut ends
notes: mutant form of CD6 with tyrosine Y662 substituted
B3: recombinant GADS SH2 domain (his-tagged) (protein, UniProt O75791 58-149, looked up)
chain: WFHEGLSRHQAENLLMGKEVGFFIIRASQSSPGDFSISVRHEDDVQHFKVMRDNKGNYFLWTEKFPSLNKLVDYYRTNSISRQKQIFLRDRT
B4: recombinant SLP-76 SH2 domain (his-tagged) (protein, UniProt Q13094 422-530, looked up)
chain: WYVSYITRPEAEAALRKINQDGTFLVRDSSKKTTTNPYVLMVLYKDKVYNIQIRYQKESQVYLLGTGLRGKEDFLSVSDIIDYFRKMPLLLIDGKNRGSRYQCTLTHAA
B5: chimeric receptor of SEQ ID NO.4: human CD6 extracellular and transmembrane regions, mouse CD3 zeta cytoplasmic region, plus human CD6 C terminus (protein)
chain: MWLFFGITGLLTAALSGHPSPAPPDQLNTSSAESELWEPGERLPVRLTNGSSSCSGTVEVRLEASWEPACGALWDSRAAEAVCRALGCGGAEAASQLAPPTPELPPPPAAGNTSVAANATLAGAPALLCSGAEWRLCEVVEHACRSDGRRARVTCAENRALRLVDGGGACAGRVEMLEHGEWGSVCDDTWDLEDAHVVCRQLGCGWAVQALPGLHFTPGRGPIHRDQVNCSGAEAYLWDCPGLPGQHYCGHKEDAGAVCSEHQSWRLTGGADRCEGQVEVHFRGVWNTVCDSEWYPSEAKVLCQSLGCGTAVERPKGLPHSLSGRMYYSCNGEELTLSNCSWRFNNSNLCSQSLAARVLCSASRSLHNLSTPEVPASVQTVTIESSVTVKIENKESRELMLLIPSIVLGILLLGSLIFIAFILRAKFSRSAETAANLQDPNQLYNELNLGRREEYDVLEKKRARDPEMGGKQQRRRNPQEGVYNALQKDKMAEAYSEIGTKGERRRGKGHDGLYQGLSTATKDTYDALHMQTLAPRTSSGEWYQNFQPPPQPPSEEQFGCPGSPSPQPDSTDNDDYDDISAA
B6: CD6 Y629F Y662F: mutant form of CD6 with both tyrosine residues Y629 and Y662 substituted (protein, UniProt P30203 1-668, looked up, variant Y629F Y662F)
chain: MWLFFGITGLLTAALSGHPSPAPPDQLNTSSAESELWEPGERLPVRLTNGSSSCSGTVEVRLEASWEPACGALWDSRAAEAVCRALGCGGAEAASQLAPPTPELPPPPAAGNTSVAANATLAGAPALLCSGAEWRLCEVVEHACRSDGRRARVTCAENRALRLVDGGGACAGRVEMLEHGEWGSVCDDTWDLEDAHVVCRQLGCGWAVQALPGLHFTPGRGPIHRDQVNCSGAEAYLWDCPGLPGQHYCGHKEDAGAVCSEHQSWRLTGGADRCEGQVEVHFRGVWNTVCDSEWYPSEAKVLCQSLGCGTAVERPKGLPHSLSGRMYYSCNGEELTLSNCSWRFNNSNLCSQSLAARVLCSASRSLHNLSTPEVPASVQTVTIESSVTVKIENKESRELMLLIPSIVLGILLLGSLIFIAFILLRIKGKYALPVMVNHQHLPTTIPAGSNSYQPVPITIPKEVFMLPIQVQAPPPEDSDSGSDSDYEHYDFSAQPPVALTTFYNSQRHRVTDEEVQQSRFQMPPLEEGLEELHASHIPTANPGHCITDPPSLGPQYHPRSNSESSTSSGEDYCNSPKSKLPPWNPQVFSSERSSFLEQPPNLELAGTQPAFSAGPPADDSSSTSSGEWFQNFQPPPQPPSEEQFGCPGSPSPQPDSTDNDDFDDISAA

Key:
GADS = biological target: T1, GADS; assay: Co-immunoprecipitation with CD6 constructs in Jurkat cells, Western blot; format: binding; details: Jurkat cells treated with Na3VO4
Description: (§1) In FIG. 2(A) Lysate of 8×10^5 Jurkat cells treated with the phosphatase inhibitor Na3VO4 or immunoprecipitation samples of 3×10^6 cells were loaded on gels and after electrophoretic separation they were blotted on nitrocellulose membranes. The membranes were probed with the indicated antibodies and visualised using LI-COR western blotting. FIG. 2(B) illustrates Western Blot bands of three independent CD6 co-immunoprecipitations were quantified using the software ImageJ. Each co-immunoprecipitation value is divided by the intensity of the band in the lysate to compensate for differences in cell numbers used and is normalised to the intensity of EGFP in the co-immunoprecipitation divided by the intensity of EGFP in the lysate to compensate for different expression levels of the constructs. Samples were analysed using the unpaired Student t test comparing values of mutants to the VVT. n=3, error bars show the standard error of the mean, * p<0.05, ** p<0.01, ns=not significant.

SLP-76 = biological target: T2, SLP-76; assay: as above; format: binding; details: Jurkat cells treated with Na3VO4
Description: as §1

[1] = biological target: biotinylated CD6 peptide pY629 Y662 (human); assay: SPR (BIAcore 3000), equilibrium binding, biotinylated peptide on streptavidin CM5 chip, 15° C.
[2] = biological target: biotinylated CD6 peptide pY629 pY662 (human); assay: as above
[3] = biological target: biotinylated CD6 peptide pY629 Y662 (human); assay: SPR (BIAcore 3000), equilibrium binding, biotinylated peptide on streptavidin CM5 chip, 37° C.
[4] = biological target: biotinylated CD6 peptide pY629 pY662 (human); assay: as above
[5] = biological target: biotinylated CD6 peptide Y629 pY662 (human); assay: SPR (BIAcore 3000), equilibrium binding, biotinylated peptide on streptavidin CM5 chip, 15° C.
[6] = biological target: biotinylated CD6 peptide Y629 pY662 (human); assay: SPR (BIAcore 3000), equilibrium binding, biotinylated peptide on streptavidin CM5 chip, 37° C.
2B4 Reay cells = assay: IL-2 secretion (ELISA) by hybridoma cells expressing chimeric receptors after CD6 crosslinking; format: cell-based, mouse
Description: The activity of the exemplary chimeric receptor was compared with that of a comparator chimeric receptor lacking the CD6-derived signalling region. Both chimeric receptor molecules contained the extracellular and transmembrane regions of human CD6 and the cytoplasmic region of mouse CD3 zeta. The exemplary chimeric receptor further comprised residues 623 to 668 from the C terminus of human CD6.
Murine T hybridoma cells were transduced to express either the exemplary or comparator chimeric receptors. Cells were assessed for their response to human CD6 monoclonal antibody immobilised on 96 well tissue culture plates. After incubation for 18 h at 37° C., the supernatants were analysed for the presence of mouse IL-2 by ELISA.
The activity of a comparator chimeric receptor (consisting of the extracellular region of human CD6 and the mouse CD3 zeta tail, effectively a first generation CAR in the cytoplasmic region) was investigated alongside the exemplary chimeric receptor illustrative of CARs or cells of the invention. […] The cells were stimulated with different concentrations of plate-bound T12.1 monoclonal antibody (mAb), a CD6 crosslinking antibody, overnight and secreted mouse IL-2 was measured by ELISA.

CD4+ T cells = assay: Primary T cell activation by CD69 expression after CD3 and CD6 antibody stimulation; format: cell-based; details: CD3 antibodies and 5 μg/ml CD6 antibodies; three donors; versus untransduced cells
Procedure: CD4+ T cells were stimulated with CD3 antibodies and 5 μg/ml CD6 antibodies to crosslink transduced CD6.

primary T cells = assay: Intracellular IL-2 in primary T cells after antibody stimulation; format: cell-based

Molecule | co-immunoprecipitation of GADS (GADS) | co-immunoprecipitation of SLP-76 (SLP-76) | Kd [2] | Kd [4] | other results
B1 | strongly reduced | strongly reduced | – | – | –
B2 | strongly reduced | strongly reduced | – | – | –
B3 | – | – | 140 to 2050 nM | 770 to 1580 nM | Kd [1]: 150 to 620 nM; Kd [3]: 600 to 880 nM
B4 | – | – | 260 to 1820 nM | 620 to 2820 nM | Kd [5]: 310 to 1870 nM; Kd [6]: 890 to 3090 nM
B5 | – | – | – | – | increase of IL-2 production as compared to a control receptor lacking the CD6-derived signalling region (2B4 Reay cells): at least 2.5 fold
B6 | almost no SLP-76 and GADS was detected | almost no SLP-76 and GADS was detected | – | – | percentage of CD69 positive cells (CD4+ T cells): no significant difference; percentage of IL-2 positive cells (primary T cells; CD3 antibodies but not CD6 antibodies): did not show a significantly increased level of T cell activation; percentage of IL-2 positive cells (primary T cells; both CD3 antibodies and CD6 antibodies, three donors): did not show a significantly increased percentage of IL-2 positive cells
